Positions count from the first letter of the chain named.
B1: hCDIFA-6 (antibody, V domains shown)
VH: QVQLQESGPGLVKPSQTLSLTCSVSGDSSSSGDYYWNWIRQPAGKGLEWIGYIYTSGSTNYNPSLKSRVTISEDTSKKQFSLKLTSVTAADTAVYYCARGIVGVGLDYWGQGTLVTVSS
VL: EIVMTQSPSTLSASVGDRVTITCRASQTISSWLAWYQQKPGRAPKLLMSKTSTLQPGVPSRFSGSGSGTEFTLTISGLQPDDVATYYCHHYNSWPFGPGTKVEIKR
B2: hCDIFA-5 (antibody, V domains shown)
VH: EVQLVESGPGLVKPSETLSLTCAVSGGSISGYYWSWIRQPPGKGLEWIAYIYDSGSTSHNPSLKSRVTTSVDTSKNQFSLKLNSVTAADTAVYYCARSGKWALGAFDMWGQGTMVTVSS
VL: QSALTQPPSVSGAPGQRVTISCTGSSSNIGAGYDVHWYQQLPGTAPKLLISGNNNRPSGVPDRFSGSKSGTSASLAITGLQAEDEADYYCQSYDNDLSGLVVFGGGTKLTVLG
B3: hCDIFA-7 (antibody, V domains shown)
VH: QVQLRESGPGLVKPSETLSLTCTVSGGSVSNYYWSWIRQPPGKGLEWIGYIYSSGTINFNPSLKGRVTISGDTSKNQFSLKLSSVTAADTAVYYCARSGKWALGAFDIWGQGTMVTVSS
VL: B2 VL with A31T, T44K, A45V, S51H, N54G, N55D, G66A, A82S, A86G, D96S
B4: hCDIFA-46 (antibody, V domains shown)
VH: EVQLVESGGGLVQPGGSLRLSCAASGFTVSRNYMTWVRQAPGKGLEWVSVIYSGGSTYHADSVKGRFTISRDNSKNTLNLQMSSLRAEDTAVYYCARPCPGSSISCDYNMDVWGQGTTVTVSS
VL: QAVVTQPASVSGSPGQSITISCTGTSSDVGGYNYVSWYQQHPGKAPKLIIYEVSNRPSGVSNRFSGSKSGNTASLTISGLQAEDEADYYCTSYTSSSMIDVFGTGTKLTVLG
B5: hCDIFA-24 (antibody, V domains shown)
VH: QVQLVQSGGGVVQPGRSLRLSCAASGFSFSTHGMHWVRQAPGKGLEWVAVISYDGSNKYYADSVKGRFTISRDNSKNTVYLQMNSLRAEDTAVFYCAKPRDNYYYYGMDVWGQGTTVTVSS
VL: AIRMTQSPSSLSASTGNRVTITCRASQGISSYLAWYQQKPGKAPNLLIYAASTLQSGVPSRFTGSGSGTDFTLTISRLHSENFATYYCQQYFNYPRTFGQGTRLEIKR
B6: hCDIFA-1 (antibody, V domains shown)
VH: QLQLQESGPGLVKPSETLSLICTVSGGSFSSSDFYWGWIRQPPGKGLEWIGNFYYNGSTSYNPSLKSRVTISVDTSKNQFSLKLRSVTAADTAVYYCARDYNFWNNSPNWFDPWGQGTLVTVSS
VL: EIVMTQSPATLSVSPGERATLSCRASQSISSNLAWYQQKLGQAPRLLIHGASTRATGIPARFSGSGSGTQFTLTISSLQSEDFAVYFCQQYNNWPPTFGGGTKVDIKR
B7: hCDIFA-32 (antibody, V domains shown)
VH: QVQLQESGPGLVKPSETLSLTCTVSGGSISSHYWSWIRQTPGKGLEYIGNIYYTGRTKYNPSLKSRVTISADMSKNQVSLKLNSVTAADTAVYYCARGGPLMDVWGQGTTVTVSS
VL: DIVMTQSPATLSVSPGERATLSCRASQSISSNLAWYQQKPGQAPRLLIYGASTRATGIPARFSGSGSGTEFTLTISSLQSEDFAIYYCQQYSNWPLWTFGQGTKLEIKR
B8: hCDIFA-8 (antibody, V domains shown)
VH: QVQLVESGGGLVKPGGSLRLSCAASGFTFSTSSMNWVRQAPGKGLEWVSSINTSGDYIYYTDSVKGRFTISRDNAKNSLYLQMNSLRAEDTAVYYCARDLGTWRDYWGQGTLVTVSS
VL: QSVLTQPASVSGSPGQSITISCTGTSSDVGSYNLVSWYHQHPGKAPKLIIYEVSKRPSGVSNRFSGSKSGNTASLTISGLQAEDEADYYCYSYAGSSAFAWVFGTGTKLTVLG
B9: hCDIFA-56 (antibody, V domains shown)
VH: QVQLVQSGAEVKKPGASVKVSCKVSGYTLPELSMHWVRQAPGKGLEWMGGFDPEDDDTIYAQKFQGRVTMTEDTSTDTAYLELSSLRSEDTAVYYCATDSSPLYNENYFGSAAFDVWGQGTTVTVSS
VL: AIRMTQSPSSLSASVGDRVTITCRASQGISTYLAWYQQKPGKAPKLLLYAASRLESGVPSRFSGSGSGTDYTLTINSLQPEDFATYYCQQYDRMPRTFGQGTKVEIKR
B10: hCDIFA-37 (antibody, V domains shown)
VH: QVQLLESGPGLVKTSGTLSLTCSVSGDSVSTNNWWTWVRQPPGKGLEWIGEIYYNGNTIYNPSFKSRVTISVNRSKNHFSLKLNSVTAADRAVYYCARRTWNDVGPFDYWGQGILVTVSS
VL: DIVMTQSPSSLSASIGDRVIITCRASQNINRYLNWYQQTAGKAPKLLIYGTSNLQSGVPSRFSGSGSGSGTDFTLTISSLQPEDFATYYCHQSYRTPQTFGQGTKLEIKR
B11: hCDIFA-45 (antibody, V domains shown)
VH: QVQLVQSGPEVRKPGTSVKFSCKASGFTFTSAAMQWVRQARGQRLEWIGWIVVDSGNTNYAQKFQERVTITRDMSTSTVYMELSSLRSEDTAMYYCAASRGIVGTRGLFDSWGQGTLVTVSS
VL: EIVLTQSPSSLSSSVGDRVTITCRASQSIRNYLNWYQQKPGKAPKLLIYGASSLQSGVPPRFSGSGFGTDFTLTISNLQPEDFASYSCQQTYSTPLTFGGGTKLEIKR
B12: hCDIFA-15 (antibody, V domains shown)
VH: QVQLVQSGAEVKKPGASVKISCKASGYTFVRYYMHWVRQAPGQGLEWMGLIDPSGGSTRYAQRFQGRVTMTRDTSTSTVYMELSGLRSEDTAVYYCARDGPFGGLSGGNWFDPWGQGTLVTVSS
VL: AIRMTQSPGTLSLSPGERATLSCRASQSLSFSYLAWYQQKPGQAPRLLIYGASSRATGIPDRFSGSGSGTDFALTISRLEPEDFAVYYCQQYGTSPLTFGGGTKVDIKR
B13: hCDIFA-35 (antibody, V domains shown)
VH: EVQLVQSGGGVVQPGRSLKLSCAASGFSFSSHGMHWVRQAPGKGLEWVALISYDGSYKYYEDSVKGRFTISRDNSKNTLYLQMNSLRAEDTAVYYCAKDWERYCSGMSCYLRNSLDYWGQGTLVTVSS
VL: QSALTQPPSVSVAPGKTAGITCGGPNIGSKSVHWYQRKPGQAPVLVVYDDRYRPSGIPERFSGSNSGNTATLSISRVEAGDEADYYCQVWDSRSDHVVFGGGTKLTVLG
B14: hCDIFA-55 (antibody, V domains shown)
VH: EVQLLESGAEVKKPGASVKVSCKASAYTFTTYGINWVRQAPGQGLEWMGWVSFSNGNTEYAQKFQGRVTMTTDTSTSTAFMELRSLRSDDTAVYYCASEKGELLSGCFDPWGQGTLVTVSS
VL: QSVLTQPPSVSAAPGQKVTISCSGSSSNIGNSLVSWYQHLPGTAPKLLISDNNERPSGIPDRFSGSKSGTSATLGITGLQTGDEADYYCGTWDSSLSVVVFGGGTKLTVLG
B15: hCDIFA-11 (antibody, V domains shown)
VH: QVQLVQSATEMKKPGASVKVSCKASGYTFSDSYMHWVRQAPGQGLEWMGWINPDSGGTNYAQKFKGWVTMTRDTSINTVYMELRRLRSDDTAVYYCARDGGDYARHSLDYWGQGTLVTVSS
VL: DVVMTQSPGTLSLSPGERVTLSCRASQSVNSDYLVWYQQKPGQAPRLLIYGASSRATGIPDRFSGSGSGPDFTLTISRLEPEDVAVYYCQLYGGLFTFGQGTRLEIKR
B16: hCDIFA-59 (antibody, V domains shown)
VH: QVQLVESGGGLVQPGRSLRLSCRTSGFTFGDFALSWVRQAPGKGLEWVGYIRSKTFGGTTEYAASVKGRFTMSRDDSKSIAYLQMNSLKTEDTAVYFCTRASYGAFDYWGQGTLVTVSS
VL: DIVMTQSPSSLSASVGDTVTITCRAGQNIATYLHWYQQKPGKAPNLLIYDARTLQSGVPSRFSGSGSGTDFTLTINSLQPEDFATYYCQQSYNTPWTFGQGTKVEIKR

Columns and labels:
C. difficile toxin A = C. difficile toxin A (Clostridium difficile, UniProt P16154 1-2710); experiment: cell-based or functional assay
[1] = target: T1, genetically modified and chemically inactivated C. difficile toxoid A (Clostridium difficile, UniProt P16154 2-2710); experiment: ITC
T1 construct: also called TxdA; the toxoid

Row | Binder | EC50 TcdA [RLU], toxin neutralization assay (TNA) on IMR90 cells (C. difficile toxin A) [RLU] | DH [1] [kcal/mol] | Kd [1] [nM] | Stoichiometry [1]
1 | B1 | 1420 |  |  | 
2 | B2 | 1450 |  |  | 
3 | B3 | 13300 | -13.5 | 118 | 2.94
4 | B4 | 1490 | -11.3 | 3 | 1
5 | B5 | 6300 | -11.2 | 6 | 1.07
6 | B6 | 5760 | -17.2 | 8 | 1.45
7 | B7 | 306 | -12 | 21 | 0.21
8 | B8 | 35400 | -6.9 | 20 | 2.02
9 | B9 | 111000 | -10.3 | 5 | 0.78
10 | B10 | 37100 | -7.9 | 7 | 0.95
11 | B11 | 1490 | -17.6 | 0.3 | 0.98
12 | B12 | ~147 | -2.7 | 38 | 1.68
13 | B13 | ~52 | -16.6 | 8 | 1.04
14 | B14 | 942000 |  |  | 
15 | B15 | 60 | -17.9 | 4 | 0.97
16 | B16 | 9 |  |  | 
